Patent US9040266B2, “Cell-based systems for production of methyl formate” (The Regents of the University of California, priority 2009, dated 2015)

B1: C. neoformans JEC21: methyl halide transferase (hypothetical protein) from Cryptococcus neoformans var. neoformans JEC21, SEQ ID NO: 12 (protein)
chain: MAQASGDDNAWEERWAQGRTAFDQSAAHPVFVKFLKSDIARELGVPKSGKALVPGCGRGYDVHLLASTGLDAIGLDLAPTGVEAARRWIGSQPSTSGKADILVQDFFTYDPLEKFDLIYDYTFLCALPPSLRQEWARQTTHLANIAADTNPILITLMYPLPPSAKSGGPPFALSEEIYQELLKEQGWKMVWSEDIEEPTRMVGAPGGEKLAVWKRI
modifications: Cryptococcus neoformans
B2: B. phymatum: methyl halide transferase from Burkholderia phymatum STM815, SEQ ID NO: 4 (protein, listed as Burkholderia phymatum)
chain: MSDKRPSVPPSAPDFENRDPNAPGFWDERFGRGFTPWDQAGVPPAFKAFVERHSPVPVLIPGCGSAYEARWLAEKGWTVRAIDFAPNAVEAARAQLGSHASLVHEADFFTYRPPFDPGWIYERAFLCALPPARRSDWVARMAQLLSPGGLLAGFFFIGATEKGPPFGIERAELDALMSPDFTLVEDEPVDDSIAVFAGRERWLTWRRRGAARG
B3: Leptospirillum: methyl halide transferase from Leptospirillum sp. Group II UBA, SEQ ID NO: 11 (protein)
chain: MPDKIFWNQRYLDKNTGWDLGQPAPPFVRLVEKGEFGPPGRVLIPGAGRSYEGIFLASRGYDVTCVDFAPQAVREAREAARQAGVKLTVVEEDFFRLDPRTIGVFDYLVEHTCFCAIDPPMRQAYVDQSHALLAPGGLLIGLFYAHGREGGPPWTTTEEEVRGLFGKKFDLLSLGLTDWSVDSRKGEELLGRLRRKNDRIE
modifications: Leptospirillum species, synthetic polypeptide of methyl halide transferase thereof
B4: C. cinerea: methyl halide transferase (hypothetical protein) from Coprinopsis cinerea okayama, SEQ ID NO: 16 (protein)
chain: MADPNLAPEIRAKMQEIFKPDDRHSWDLLWKENITPWDAGDAQPSLIELIEESGLDFARKGRALVPGCGTGYDAVYLASALGLQTIGMDISESAVEAANRYRDSSGVQGADRAIFQKADFFTYKVPDEERFDLIMDHTFFCAIHPSLRPEWGQRMSELIKPGGYLITICFPMIPKVETGPPYYLRPEHYDEVLKETFEKVYDKVPTKSSENHKDKERMLVWKKK
modifications: Synthetic polypeptide of hypothetical protein of coprinopsis cinerea.
B5: MM: methyl halide transferase from Maricaulis maris MCS10, SEQ ID NO: 18 (protein, listed as Maricaulis maris)
chain: MTHDENRSAFDWEARFIDGNTPWERGALHPAFEAWQHQSAFAAGDRALIPGCGRSPELLALAQAGLAVTGADLSGTAMAWQRKLFADAGQQVELITGDVFDWQPQQALDLVYEQTFLCAIHPRLRTRYEEALARWLKPGGRLYALFMQKPERGGPPFDCALDAMRALFPAERWTWPAEADIQPWPHPQLNGKAELGAVLIRR
B6: D. aromatica: methyl halide transferase from Dechloromonas aromatica RCB, SEQ ID NO: 15 (protein, listed as Dechloromonas aromatica)
chain: MSETIKPPEQRPEHPDFWCKRFGEGVTPWDAGKVPMAFVDFVGAQTTPLNSLIPGCGSAWEAAHLAELGWPVTALDFSPLAIEKAREVLGDSPVKLVCADFFTFAPRQPLDLIYERAFLCALPRKLWADWGKQVAELLPSGARLAGFFFLCDQPKGPPFGILPAQLDELLRPNFELIEDQPVGDSVPVFAGRERWQVWRRR
B7: FB: methyl halide transferase from Flavobacteria bacterium BBFL7, SEQ ID NO: 19 (protein, listed as Flavobacteria bacterium)
chain: MPLNKQYWEDRYKNNSTGWDLGIISTPIKEYVNQLENKNSKILIPGAGNAHEATYLVKNGFKNIFILDIALSPLKFAKQRSKLPEEHLIQQDFFDHKGSYDLIIEQTFFCALEPRFRESYVKKIHMLLRDQGCLIGVLFNFENNLSSPPFGGSINEYLNLFEPYFEIVTMEPCNNSVIERQGKEIFIKLKKKK
B8: AT-2: methyl halide transferase from Arabidopsis thaliana TM2, SEQ ID NO: 10 (protein, listed as Arabidopsis thaliana)
chain: MAEEQQNSDQSNGGNVIPTPEEVATFLHKTVEEGGWEKCWEEEITPWDQGRATPLIVHLVDTSSLPLGRALVPGCGGGHDVVAMASPERFVVGLDISESALAKANETYGSSPKAEYFSFVKEDVFTWRPTELFDLIFDYVFFCAIEPEMRPAWAKSMYELLKPDGELITLMYPITDHVGGPPYKVDVSTFEEVLVPIGFKAVSVEENPHAIPTRQREAGKVEEDQLIPKKEILLFGKSVICVIYKE
B9: Brassica rapa subsp. chinensis: methyl halide transferase from Brassica rapa subsp. chinensis, SEQ ID NO: 6 (protein, listed as Brassica rapa)
chain: MAEVQQNSAHINGENIIPPEDVAKFLPKTVEEGGWEKCWEDGVTPWDQGRATPLVVHLVESSSLPLGRALVPGCGGGHDVVAMASPERYVVGLDISESALEKAAETYGSSPKAKYFTFVKEDFFTWRPNELFDLIFDYVVFCAIEPETRPAWAKAMYELLKPDGELITLMYPITDHDGGPPYKVAFSTYEDVLVPVGFKAVSIEENPYSIATRKGKEKLARWKKIN
B10: O. tauri: methyl halide transferase (unnamed protein product) from Ostreococcus tauri, SEQ ID NO: 14 (protein, listed as Ostreococcus tauri)
chain: MTTSSAPTRHTSMRVALAAPATVTRRLGTYKRVFDRRAMSTRAIDGAVTSNAGDFARQDGSTDWEGMWSRGITKGAAFDCSRTEPAFQNALDAKEIAIGSGRALVPGCGRGYALASLARAGFGDVVGLEISETAKEACEEQLKAESIPETARVEVVVADFFAYDPKEAFDAAYDCTFLCAIDPRRREEWARKHASLIKPGGTLVCLVFPVGDFEGGPPYALTPEIVRELLAPAGFEEIELRETPAEMYARGRLEYLFTWRRRS
B11: HH: methyl halide transferase from Halorhodospira halophila SL1, SEQ ID NO: 21 (protein, listed as Halorhodospira halophila)
chain: MSGDPDPRRAPWEARWREGRTGWDRGGVSPTLEAWLSAGVIPGRRVLVPGAGRGYEVEALARRGYKVTAVDIAAEACQQLRDGLDAAGVEARVVQADLLAWQPDTPFDAVYEQTCLCALDPADWPAYEQRLYGWLRPGGVLLALFMQTGASGGPPFHCALPEMATLFDSERWQWPAEPPRQWPHPSGRWEEAVRLLRR
B12: O. sativa: methyl halide transferase from Oryza sativa (japonica cultivar-group), SEQ ID NO: 13 (protein, listed as Oryza sativa)
chain: MASAIVDVAGGGRQQALDGSNPAVARLRQLIGGGQESSDGWSRCWEEGVTPWDLGQRTPAVVELVHSGTLPAGDATTVLVPGCGAGYDVVALSGPGRFVVGLDICDTAIQKAKQLSAAAAAAADGGDGSSSFFAFVADDFFTWEPPEPFHLIFDYTFFCALHPSMRPAWAKRMADLLRPDGELITLMYLAEGQEAGPPFNTTVLDYKEVLNPLGLVITSIEDNEVAVEPRKGMEKIARWKRMTKSD
B13: RB: methyl halide transferase from Robiginitalea bofirmata HTCC2501, SEQ ID NO: 17 (protein, listed as Robiginitalea biformata)
chain: MTDLDRDFWEDRYRAGTDRWDLGGPSPPLTAYIDGLTDQELRILVPGAGRGYEAEYLYRAGFENLTIVDLARRPLDDLRRRLPELPAAALQQTDFFSFRGGPFDLILEHTFFCALPPARRPDYVQAMHRLLVPGGRLAGLFFDFPLTEDGPPFGGSETEYRNRFSSLFHIRKLERARNSIPPRAGTELFFIFEKK
B14: VV: methyl halide transferase from Vitis vinifera, SEQ ID NO: 20 (protein, listed as Vitis vinifera)
chain: MASPDNTKPKARSSESVTGQRRGRRPSDRHWPCVGEESGSFYNTIADGERQYQHRIELRASKNKPSSWEEKWQQGLTPWDLGKATPIIEHLHQAGALPNGRTLIPGCGRGYDVVAIACPERFVVGLDISDSAIKKAKESSSSSWNASHFIFLKADFFTWNPTELFDLIIDYTFFCAIEPDMRPAWASRMQQLLKPDGELLTLMFPISDHTGGPPYKVSIADYEKVLHPMRFKAVSIVDNEMAIGSRKKKYPLKPDLSLFGFVDRPKRAYEARSEEFRISDWVCGWMGLCVPSGRISGGVCGLLSGRSLTWAKNLGVSTTQLRMSNNGSSIESNPKVQKLNQIIGSDSAGGWEKSWQQGHTPWDLGKPTPIIQHLHQTGTLPSGKTLVPGCGCGYDVVTIACPERFVVGLDISDSAIKKAKEISDHAGGPPYKVSVADYEEVLHPMGFKAVSIVDNKMAIGPRKGREKLGRWKRTPSKSLL

test system: methyl bromide and methyl iodide production in E. Coli; experiment: Methyl halide production by heterologous MHTs expressed in E. coli (Example 8, headspace GC/MS); assay type: cell-based; conditions: 165 mM NaX, 100 uM IPTG, 1.5 hours, FIG. 7
Method: Nineteen methyl halide transferase genes from various organisms were codon-optimized and introduced into E. Coli. Production of methyl bromide and methyl iodide was determined for each. […] Group II UBA; Cryptococcus neoformans var. neoformans JEC21; Oryza sativa (japonica cultivar-group); Ostreococcus tauri; Dechloromonas aromatica RCB; Coprinopsis cinerea okayama; Robiginitalea bofirmata HTCC2501; Maricaulis maris MCS10; Flavobacteria bacterium BBFL7; Vitis vinifera and; halorhodospira halophila SL1.
For each strain a single colony was picked and grown overnight (10-14 hrs) in 20 mL of LB miller in a 30 mL glass test tube with aeration (a loose cap) at 37 C and 250 rpm shaking. The culture was spun down in a swinging bucket centrifuge for 5 min @ 3000×g. The cells were resuspended in 20mL of appropriate media (10 g/L Tryptone, 5 g/L Yeast Extract, 165 mM NaX [where X=CI, Br, I]) containing 100 uM IPTG inducer. The cells were sealed with rubber stoppers and parafilm and grown at 37 C with 250 rpm shaking for 1.5 hours. Cultures were taken to the GC/MS and 100 uL of headspace gas was sampled and loaded onto the column. The method run was VOIGT.m. The number of counts for the appropriate mass (MeCl, MeBr, MeI) were reported. Cells were always grown in the presence of 30 ug/mL chloramphenicol.
Methyl halide production was measured as described in the previous Examples. […] C. neoformans JEC21 gave the best methyl bromide and methyl iodide production. Leptospirillum gave the best methyl iodide production.

Molecule	methyl bromide production	methyl iodide production
B1	best	best
B2	best	
B3		best

same assay, conditions: FIG. 7

Molecule	halide specificity of methyl halide production	methyl halide transferase activity
B4	significant specificity for methyl iodide production	
B5		insignificant activity
B6	significant specificity for methyl iodide production	
B7		insignificant activity
B8		insignificant activity
B9	significant specificity for methyl bromide production	
B10	significant specificity for methyl iodide production	
B11		insignificant activity
B12	significant specificity for methyl iodide production	
B13		insignificant activity
B14		insignificant activity
